We go through 2 molecules from patent US20240254201A1 (ACADEMY OF MILITARY MEDICAL SCIENCE PLA, published 2024).

For one assay, the target named is T1, RESTV GP (RESTV, UniProt Q66799 34-638).
T1 sequence: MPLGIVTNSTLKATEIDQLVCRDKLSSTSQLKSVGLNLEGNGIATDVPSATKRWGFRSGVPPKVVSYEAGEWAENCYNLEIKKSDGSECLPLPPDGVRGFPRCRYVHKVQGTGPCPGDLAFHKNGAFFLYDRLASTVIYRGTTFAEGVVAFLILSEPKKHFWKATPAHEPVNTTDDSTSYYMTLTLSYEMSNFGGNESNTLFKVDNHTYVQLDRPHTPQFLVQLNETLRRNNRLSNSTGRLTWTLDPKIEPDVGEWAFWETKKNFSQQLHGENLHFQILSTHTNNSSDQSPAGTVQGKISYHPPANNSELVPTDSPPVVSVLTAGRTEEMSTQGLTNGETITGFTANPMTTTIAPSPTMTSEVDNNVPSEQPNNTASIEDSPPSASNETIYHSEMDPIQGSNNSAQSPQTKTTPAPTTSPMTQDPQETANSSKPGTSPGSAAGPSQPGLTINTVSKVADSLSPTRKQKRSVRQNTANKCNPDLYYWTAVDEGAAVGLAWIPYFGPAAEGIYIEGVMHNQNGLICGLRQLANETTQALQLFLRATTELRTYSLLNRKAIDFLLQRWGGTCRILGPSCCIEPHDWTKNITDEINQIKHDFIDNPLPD
Briefly: ELISA, purified antibody on coated GP (1 µg/mL).

The target of another assay is T2, SUDV GP (Sudan ebolavirus (SUDV), UniProt Q7T9D9 33-637).
T2 construct: also called Sudan ebolavirus GP
T2 sequence: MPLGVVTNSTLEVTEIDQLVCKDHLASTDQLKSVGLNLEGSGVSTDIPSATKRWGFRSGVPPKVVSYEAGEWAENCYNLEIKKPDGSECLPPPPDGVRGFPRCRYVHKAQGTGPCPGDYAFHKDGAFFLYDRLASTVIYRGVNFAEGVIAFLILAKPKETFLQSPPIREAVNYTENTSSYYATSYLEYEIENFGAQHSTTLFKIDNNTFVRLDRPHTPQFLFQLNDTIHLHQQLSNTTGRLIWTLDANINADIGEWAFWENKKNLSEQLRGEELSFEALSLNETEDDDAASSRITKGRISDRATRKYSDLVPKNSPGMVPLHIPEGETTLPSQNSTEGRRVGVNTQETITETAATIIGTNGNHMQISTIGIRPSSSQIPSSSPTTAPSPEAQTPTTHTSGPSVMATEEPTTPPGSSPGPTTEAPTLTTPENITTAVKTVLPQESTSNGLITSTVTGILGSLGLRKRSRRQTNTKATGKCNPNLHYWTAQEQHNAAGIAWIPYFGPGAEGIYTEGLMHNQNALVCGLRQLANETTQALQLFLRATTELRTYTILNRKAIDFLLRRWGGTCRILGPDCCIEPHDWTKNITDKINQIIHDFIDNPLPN
Briefly: ELISA, purified antibody on coated GP (1 µg/mL).

The target in the next assay is T3, sGP (Ebola virus (EBOV), UniProt P60170 33-324).
T3 construct: also called secreted glycoprotein
Briefly: ELISA on coated truncated GP.

Assay [1] deals with T4, EBOV GP on EBOV-eGFP-Mayinga authentic virus (Ebola virus (EBOV), Mayinga, UniProt Q05320 33-676).
T4 sequence: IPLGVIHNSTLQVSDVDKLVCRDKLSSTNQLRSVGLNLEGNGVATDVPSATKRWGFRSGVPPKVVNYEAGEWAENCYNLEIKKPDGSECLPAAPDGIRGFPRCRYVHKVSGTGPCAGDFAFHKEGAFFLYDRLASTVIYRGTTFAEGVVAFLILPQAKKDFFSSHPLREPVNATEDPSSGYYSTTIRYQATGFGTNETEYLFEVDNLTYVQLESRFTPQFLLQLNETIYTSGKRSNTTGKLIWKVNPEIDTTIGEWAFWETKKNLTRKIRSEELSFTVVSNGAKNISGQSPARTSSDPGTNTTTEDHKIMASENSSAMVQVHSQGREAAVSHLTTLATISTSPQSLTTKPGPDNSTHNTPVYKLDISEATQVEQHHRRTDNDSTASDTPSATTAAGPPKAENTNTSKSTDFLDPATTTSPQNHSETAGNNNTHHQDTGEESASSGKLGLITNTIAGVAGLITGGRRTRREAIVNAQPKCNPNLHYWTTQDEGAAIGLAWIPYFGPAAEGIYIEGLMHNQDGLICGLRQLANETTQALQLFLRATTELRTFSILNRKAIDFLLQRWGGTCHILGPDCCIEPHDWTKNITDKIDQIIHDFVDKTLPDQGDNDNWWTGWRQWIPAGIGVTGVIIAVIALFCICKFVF
Briefly: cell-based or functional assay.

B1: monoclonal antibody 2G1 (antibody, V domains shown)
VH: EVQLVESGGGLVKRGGSLRLSCVVSGYTFGGYSMHWVRQAPGKGLEWVSGISSSSYYKYYADSVKGRFTISRDNAKNSLYLQMNSLRAEDTAVYYCARDMGYCSGGSCPNFDFWGQGTTVTVSS
VL: DIQMTQSPSSLSASVGDRVTITCRTSQSISNYLNWYQQIPGKAPKLLISTASNLHSGVSSRFSGSGSGTHFTLTISSLQPEDFATYYCQQSYSTPSFGQGTKVEIKR
notes: also called 2G1-WT; wild-type 2G1
For B1, the EC50 with RESTV GP is 0.026 mg/L; with SUDV GP it was 0.0048 mg/L. Moreover, the binding result with sGP is given as “no binding”.

B2: MIL77-1 (antibody, V domains shown)
VH: EVALEESGGGLMQPGGSMKLSCVASGFTFSNYWMNWVRQSPEKGLEWVAEIRLKSNNYATHYAESVKGRFTISRDDSKRSVYLQMNTLRAEDTGIYYCTRGNGNYRAMDYWGQGTSVTVSS
VL: DIQMTQSPASLSVSVGETVSITCRASENIYSSLAWYQQKQGKSPQLLVYSATILADGVPSRFSGSGSGTQYSLKINSLQSEDFGTYYCQHFWGTPYTFGGGTKLEIKR
Turning to B2, the “IC50, EBOV-eGFP-Mayinga authentic virus neutralization test” value in assay [1] is 3.12 mg/L.
